Test results from patent publication US20240261333A1 (published 2024).

T1: CALML5 (human, UniProt Q9NZT1 2-146)
T1 construct: also called NP_059118.2
T1 sequence (looked up): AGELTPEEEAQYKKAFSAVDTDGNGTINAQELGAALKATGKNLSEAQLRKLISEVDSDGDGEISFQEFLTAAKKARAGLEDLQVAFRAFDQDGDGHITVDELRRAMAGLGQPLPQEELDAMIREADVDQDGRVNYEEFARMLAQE

T2: GEMIN4 (human, UniProt P57678 1-1058)
T2 construct: also called NP_056536.2 (+2)
T2 sequence (looked up): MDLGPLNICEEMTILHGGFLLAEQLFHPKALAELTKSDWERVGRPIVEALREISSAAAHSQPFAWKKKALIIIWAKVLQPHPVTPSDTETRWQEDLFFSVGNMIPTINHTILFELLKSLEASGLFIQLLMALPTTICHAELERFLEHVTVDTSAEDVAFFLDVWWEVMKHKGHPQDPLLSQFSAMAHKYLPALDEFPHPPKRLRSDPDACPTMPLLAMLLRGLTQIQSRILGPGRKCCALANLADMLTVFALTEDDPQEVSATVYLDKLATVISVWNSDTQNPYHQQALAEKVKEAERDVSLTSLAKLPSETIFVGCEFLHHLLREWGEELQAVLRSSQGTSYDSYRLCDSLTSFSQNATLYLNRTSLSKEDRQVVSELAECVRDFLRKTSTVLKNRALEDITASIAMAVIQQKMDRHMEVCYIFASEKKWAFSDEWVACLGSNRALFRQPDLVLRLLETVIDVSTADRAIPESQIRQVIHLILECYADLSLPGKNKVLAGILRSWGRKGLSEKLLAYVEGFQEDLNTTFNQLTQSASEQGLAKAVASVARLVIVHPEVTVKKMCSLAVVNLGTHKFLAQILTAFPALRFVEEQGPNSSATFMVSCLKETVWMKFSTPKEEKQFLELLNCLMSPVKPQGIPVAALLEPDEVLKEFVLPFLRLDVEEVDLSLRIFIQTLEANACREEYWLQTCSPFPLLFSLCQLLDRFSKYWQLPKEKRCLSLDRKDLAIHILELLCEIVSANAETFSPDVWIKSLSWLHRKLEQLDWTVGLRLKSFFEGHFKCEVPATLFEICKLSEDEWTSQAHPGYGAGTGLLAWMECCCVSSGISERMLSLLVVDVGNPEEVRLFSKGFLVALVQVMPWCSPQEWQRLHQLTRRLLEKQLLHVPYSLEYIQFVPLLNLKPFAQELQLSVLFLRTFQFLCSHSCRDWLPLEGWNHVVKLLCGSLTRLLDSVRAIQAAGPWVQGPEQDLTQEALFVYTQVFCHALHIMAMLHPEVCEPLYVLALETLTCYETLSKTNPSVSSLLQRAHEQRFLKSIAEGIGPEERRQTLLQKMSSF

T3: PLOD1 (human, UniProt Q02809 19-727)
T3 construct: also called NP_000293.2 (+1)
T3 sequence (looked up): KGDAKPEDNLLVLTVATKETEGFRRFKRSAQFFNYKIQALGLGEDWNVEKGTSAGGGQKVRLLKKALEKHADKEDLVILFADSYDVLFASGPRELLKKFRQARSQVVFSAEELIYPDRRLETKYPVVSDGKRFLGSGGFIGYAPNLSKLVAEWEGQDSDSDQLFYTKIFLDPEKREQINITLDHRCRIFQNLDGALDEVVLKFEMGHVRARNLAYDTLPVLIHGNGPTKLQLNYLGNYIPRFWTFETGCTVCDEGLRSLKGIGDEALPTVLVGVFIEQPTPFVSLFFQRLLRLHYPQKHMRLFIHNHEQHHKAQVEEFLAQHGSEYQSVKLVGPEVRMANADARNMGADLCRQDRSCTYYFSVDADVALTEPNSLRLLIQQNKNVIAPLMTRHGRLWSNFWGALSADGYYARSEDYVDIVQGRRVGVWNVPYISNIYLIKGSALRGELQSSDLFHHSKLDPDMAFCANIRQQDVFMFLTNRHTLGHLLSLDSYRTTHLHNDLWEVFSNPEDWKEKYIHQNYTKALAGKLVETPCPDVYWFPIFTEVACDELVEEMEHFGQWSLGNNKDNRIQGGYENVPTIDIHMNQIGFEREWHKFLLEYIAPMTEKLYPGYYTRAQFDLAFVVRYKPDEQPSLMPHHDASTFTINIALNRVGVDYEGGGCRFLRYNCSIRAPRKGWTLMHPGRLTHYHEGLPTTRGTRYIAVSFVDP


Legend:
Assay in all cases: co-IP with anti-FLAG, N-FLAG B3GNT2, mass spectrometry
CALML5 = biological target: T1, CALML5
GEMIN4 = biological target: T2, GEMIN4
CLTC = biological target: T4, CLTC (human, UniProt Q00610 2-1675, limits assumed)
T4 construct: also called NP_001275582.1 (+2)

PLOD1 = biological target: T3, PLOD1
RPS20 = RPS20 (human, UniProt P60866 2-119)

T4 sequence (Q00610 2-1675 limits assumed): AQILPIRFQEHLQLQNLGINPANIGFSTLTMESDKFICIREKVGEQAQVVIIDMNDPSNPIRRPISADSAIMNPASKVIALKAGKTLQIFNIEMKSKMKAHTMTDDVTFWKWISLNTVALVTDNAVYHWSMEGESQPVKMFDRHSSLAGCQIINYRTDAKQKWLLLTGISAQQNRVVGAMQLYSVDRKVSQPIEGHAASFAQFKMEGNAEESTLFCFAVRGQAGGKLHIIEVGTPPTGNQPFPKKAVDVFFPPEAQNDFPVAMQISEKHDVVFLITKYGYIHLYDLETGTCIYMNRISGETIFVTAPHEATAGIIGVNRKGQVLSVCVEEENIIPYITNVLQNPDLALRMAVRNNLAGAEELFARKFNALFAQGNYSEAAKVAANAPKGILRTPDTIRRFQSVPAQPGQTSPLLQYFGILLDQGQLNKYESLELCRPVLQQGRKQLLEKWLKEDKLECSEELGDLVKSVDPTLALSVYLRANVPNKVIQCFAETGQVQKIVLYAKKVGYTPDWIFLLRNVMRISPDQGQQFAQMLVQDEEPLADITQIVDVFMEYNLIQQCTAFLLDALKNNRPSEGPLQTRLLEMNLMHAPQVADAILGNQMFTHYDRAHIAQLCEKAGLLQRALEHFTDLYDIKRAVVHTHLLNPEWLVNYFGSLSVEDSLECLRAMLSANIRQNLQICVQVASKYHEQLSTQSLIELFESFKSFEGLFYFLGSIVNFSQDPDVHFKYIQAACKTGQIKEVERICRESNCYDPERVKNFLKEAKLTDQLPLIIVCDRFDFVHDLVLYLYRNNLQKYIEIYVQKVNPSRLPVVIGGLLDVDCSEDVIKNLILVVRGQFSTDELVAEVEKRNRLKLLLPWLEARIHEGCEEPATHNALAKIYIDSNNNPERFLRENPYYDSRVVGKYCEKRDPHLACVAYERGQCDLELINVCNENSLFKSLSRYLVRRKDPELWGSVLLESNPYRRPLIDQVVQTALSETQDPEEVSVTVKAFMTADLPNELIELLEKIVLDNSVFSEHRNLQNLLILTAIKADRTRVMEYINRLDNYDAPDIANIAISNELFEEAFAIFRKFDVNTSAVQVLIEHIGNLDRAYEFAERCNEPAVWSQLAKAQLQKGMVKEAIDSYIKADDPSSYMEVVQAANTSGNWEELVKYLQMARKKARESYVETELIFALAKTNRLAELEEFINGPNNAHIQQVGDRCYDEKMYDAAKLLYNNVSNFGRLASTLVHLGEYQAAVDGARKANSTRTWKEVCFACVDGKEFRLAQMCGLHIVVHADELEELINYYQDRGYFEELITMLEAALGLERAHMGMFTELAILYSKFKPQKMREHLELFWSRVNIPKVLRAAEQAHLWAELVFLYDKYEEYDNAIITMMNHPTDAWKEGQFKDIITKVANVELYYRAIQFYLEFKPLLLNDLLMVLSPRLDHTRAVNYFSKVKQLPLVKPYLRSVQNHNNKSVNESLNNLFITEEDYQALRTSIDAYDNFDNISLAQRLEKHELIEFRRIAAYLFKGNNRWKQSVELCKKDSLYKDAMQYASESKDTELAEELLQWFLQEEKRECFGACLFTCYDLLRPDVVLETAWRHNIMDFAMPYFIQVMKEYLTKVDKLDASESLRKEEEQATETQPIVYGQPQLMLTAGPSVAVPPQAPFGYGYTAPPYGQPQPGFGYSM

co-IP mass spectrometry count (CALML5) | co-IP mass spectrometry count (GEMIN4) | co-IP/MS count, N-term FLAG (CLTC) | co-IP/MS count, N-term FLAG (PLOD1) | co-IP/MS count, N-term FLAG (RPS20) | Binder
0 | 0 |  |  |  | N-terminal FLAG tagged B3GNT2 (enzyme, human, UniProt Q9NY97 1-397, looked up, FLAG-tagged ORF overexpressed in cells; pulled down from lysate with mouse anti-FLAG; also called N-FLAG B3GNT2; N-term FLAG; not shown: N-terminal FLAG tag) MSVGRRRIKLLGILMMANVFIYFIMEVSKSSSQEKNGKGEVIIPKEKFWKISTPPEAYWNREQEKLNRQYNPILSMLTNQTGEAGRLSNISHLNYCEPDLRVTSVVTGFNNLPDRFKDFLLYLRCRNYSLLIDQPDKCAKKPFLLLAIKSLTPHFARRQAIRESWGQESNAGNQTVVRVFLLGQTPPEDNHPDLSDMLKFESEKHQDILMWNYRDTFFNLSLKEVLFLRWVSTSCPDTEFVFKGDDDVFVNTHHILNYLNSLSKTKAKDLFIGDVIHNAGPHRDKKLKYYIPEVVYSGLYPPYAGGGGFLYSGHLALRLYHITDQVHLYPIDDVYTGMCLQKLGLVPEKHKGFRTFDIEEKNKNNICSYVDLMLVHSRKPQEMIDIWSQLQSAHLKC
 |  | 6 | 0 | 4 | N-terminal FLAG tagged B3GNT2 (enzyme, human, UniProt Q9NY97 1-397, looked up, FLAG-tagged ORF overexpressed in A375 cells; pulled down from the lysate with mouse anti-FLAG; also called N-FLAG B3GNT2; N-term FLAG; not shown: N-terminal FLAG tag) MSVGRRRIKLLGILMMANVFIYFIMEVSKSSSQEKNGKGEVIIPKEKFWKISTPPEAYWNREQEKLNRQYNPILSMLTNQTGEAGRLSNISHLNYCEPDLRVTSVVTGFNNLPDRFKDFLLYLRCRNYSLLIDQPDKCAKKPFLLLAIKSLTPHFARRQAIRESWGQESNAGNQTVVRVFLLGQTPPEDNHPDLSDMLKFESEKHQDILMWNYRDTFFNLSLKEVLFLRWVSTSCPDTEFVFKGDDDVFVNTHHILNYLNSLSKTKAKDLFIGDVIHNAGPHRDKKLKYYIPEVVYSGLYPPYAGGGGFLYSGHLALRLYHITDQVHLYPIDDVYTGMCLQKLGLVPEKHKGFRTFDIEEKNKNNICSYVDLMLVHSRKPQEMIDIWSQLQSAHLKC
